Literature values, collected in paper PMC3683042, “Solution Structure and Peptide Binding of the PTB Domain from the AIDA1 Postsynaptic Signaling Scaffolding Protein” (PLoS ONE, 2013).

How the values were obtained:
[1] = target: APP 14 aa peptide (Homo sapiens) (UniProt P05067)
[2] = target: APP 11 aa peptide (Homo sapiens) (UniProt P05067)
[3] = target: APP 32 aa peptide (Homo sapiens) (UniProt P05067)
APP 32 aa peptide (Homo sapiens), sequence (P05067 739-770): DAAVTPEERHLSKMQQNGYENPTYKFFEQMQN

Fe65 PTB2, sequence (O00213 542-699): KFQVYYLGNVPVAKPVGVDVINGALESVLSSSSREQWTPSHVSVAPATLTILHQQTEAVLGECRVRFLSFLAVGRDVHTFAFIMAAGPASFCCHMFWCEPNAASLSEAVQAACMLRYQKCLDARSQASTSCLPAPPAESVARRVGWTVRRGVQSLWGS
APP 11 aa peptide (Homo sapiens), sequence (P05067 whole entry, looked up, tested part not stated): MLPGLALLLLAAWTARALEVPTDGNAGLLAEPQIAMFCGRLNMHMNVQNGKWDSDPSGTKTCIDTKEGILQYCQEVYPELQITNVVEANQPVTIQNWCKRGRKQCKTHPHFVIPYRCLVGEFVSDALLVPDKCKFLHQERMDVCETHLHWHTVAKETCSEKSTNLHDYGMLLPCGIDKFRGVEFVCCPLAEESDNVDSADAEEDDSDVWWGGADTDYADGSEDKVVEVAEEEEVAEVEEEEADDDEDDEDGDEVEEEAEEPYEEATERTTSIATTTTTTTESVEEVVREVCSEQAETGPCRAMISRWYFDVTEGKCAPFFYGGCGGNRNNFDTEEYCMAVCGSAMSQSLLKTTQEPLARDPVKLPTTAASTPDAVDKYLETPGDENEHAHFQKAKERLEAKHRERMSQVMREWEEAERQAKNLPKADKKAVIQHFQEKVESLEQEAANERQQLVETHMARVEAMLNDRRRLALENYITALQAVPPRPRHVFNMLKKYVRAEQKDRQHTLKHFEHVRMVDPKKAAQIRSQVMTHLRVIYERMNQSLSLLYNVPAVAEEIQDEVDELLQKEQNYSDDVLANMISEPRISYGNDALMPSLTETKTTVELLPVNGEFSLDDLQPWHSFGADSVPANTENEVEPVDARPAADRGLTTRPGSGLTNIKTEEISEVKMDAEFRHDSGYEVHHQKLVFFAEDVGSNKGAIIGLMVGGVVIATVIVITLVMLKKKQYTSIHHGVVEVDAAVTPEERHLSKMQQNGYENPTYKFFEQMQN
X11 PTB, sequence (Q02410 457-643): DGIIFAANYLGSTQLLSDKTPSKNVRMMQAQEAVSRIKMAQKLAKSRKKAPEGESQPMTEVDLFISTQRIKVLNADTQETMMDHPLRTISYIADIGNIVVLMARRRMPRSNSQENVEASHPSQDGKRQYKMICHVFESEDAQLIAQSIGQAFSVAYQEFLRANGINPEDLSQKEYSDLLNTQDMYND

Row | Substance | Kd [1] [nM] | Kd [2] [nM] | Kd [3] [nM]
1 | X11 PTB (from UniProt Q02410) | 300 |  | 
2 | Fe65 PTB2 (from UniProt O00213) |  | 100000 | 200
